Assay results taken from patent US11931423B2, “Glucose oxidase-nanoparticle bioconjugates for cancer treatment” (UNIVERSITY OF PITTSBURGH—OF THE COMMONWEALTH SYSTEM OF …, priority 2017, dated 2024).

Columns and labels:
[1] = system: ROS; assay: TMB-based ROS activity assay; assay type: biochemical; settings: in the presence of glucose, 37° C., 2 h, pH 4
Text: Production of ROS by the GOx-SPION bioconjugate was characterized by using a color agent 3,3′,5,5′-tetramethylbenzidine (TMB). TMB is known to be able to produce a blue color in the presence of ROS, which can be quantified by measuring the absorption at the wavelength of 650 nm. As a comparison, the levels of ROS produced by GOx and SPION alone, a mixture of GOx and SPION without conjugation, as well as the mAb-GOx-SPION bioconjugate were characterized.
The TMB-based ROS activity assay was carried out by using the following process. 20 μL SPION (5.0 mg/mL), GOx (1.0 mg/mL), a mixture of GOx (0.5 mg/mL) and SPION (2.5 mg/mL) without conjugation, GOx-SPION (5.0 mg/mL), and mAb-GOx-SPION (5.0 mg/mL) were each added into 380 μL of reaction buffer (0.1 M NaAc, pH 4, 50 μg TMB), followed by addition of either 100 μL of 100 mM glucose or 100 μL of DiH2O. After the mixtures were incubated at 37° C. for 2 h, the color change was detected with a Hitachi UV-Vis spectrophotometer.

[2] = system: 4T1 cells; assay: In vivo therapeutic efficacy in 4T1 tumor-bearing mice; settings: for tumor growth (relative tumor volume): 4T1 tumors, single tail vein injection, 21 days, SPION-GOx 5 mg/kg, SPION 5 mg/kg, GOx 8.5 nmol/kg
Procedure: 4T1 cells (2×10^5 cell/mouse) were implanted subcutaneously into the right shoulders of female balb/c mice (˜20 g). In vivo therapeutic efficacy experiments were performed when the tumor reached 6˜8 mm in average diameter (10 days after implant). 3-5 mice were randomly assigned to 4 groups, to which the following agents were administered via tail vein injection: Group A were administered with a mixture of unconjugated SPION and GOx at the dosage of 5 mg/kg and 8.5 nmol/kg respectively; Group B were administered with GOx at the dosage of 8.5 nmol/kg; Group C were administered with 200 μL saline as control; and Group D were administered with a single dose of 5 mg/mL SPION-GOx in saline at a dosage of 5 mg/kg. All the administration was made at about the same time of the day. The size and size distribution of SPION-GOx bioconjugates were determined using DLS before injection to ensure the conjugation was complete and no precipitation was formed in the suspension. The SPION-GOx PBS solution to be used on animal study was tested using a TMB assay to verify the effective generation of ROS. The weight and health conditions of the mice were monitored daily. The tumor sizes were measured and recorded every other day in the first 12 days, and then every 3 days until 21 days post injection, at which time point the tumors were harvested. The volumes of the tumors were calculated by the following equation: V=L×W^2/2.

[3] = system: 4T1 breast cancer xenografts; assay: Biodistribution in mice with 4T1 breast cancer xenografts; assay type: in vivo; settings: 150 μg, mice with 4T1 xenografts, 1 day after injection
Procedure: To visualize the biodistribution of GOx-SPION within mouse models, GOx-SPION was tagged with a fluorescent dye (Cy7 moiety). 150 μg of the resulting SPION-GOx-Cy7 bioconjugate was administered to 5 mice having 4T1 breast cancer xenografts. The biodistribution of the bioconjugates was imaged at 1 day, 3 days, 4 days, 5 days, 6 days, and 7 days after injection (see FIGS. 12A-12B).

B1: glucose oxidase (protein, UniProt P13006 17-605, looked up)
Glucose oxidase: LPHYIRSNGIEASLLTDPKDVSGRTVDYIIAGGGLTGLTTAARLTENPNISVLVIESGSYESDRGPIIEDLNAYGDIFGSSVDHAYETVELATNNQTALIRSGNGLGGSTLVNGGTWTRPHKAQVDSWETVFGNEGWNWDNVAAYSLQAERARAPNAKQIAAGHYFNASCHGVNGTVHAGPRDTGDDYSPIVKALMSAVEDRGVPTKKDFGCGDPHGVSMFPNTLHEDQVRSDAAREWLLPNYQRPNLQVLTGQYVGKVLLSQNGTTPRAVGVEFGTHKGNTHNVYAKHEVLLAAGSAVSPTILEYSGIGMKSILEPLGIDTVVDLPVGLNLQDQTTATVRSRITSAGAGQGQAAWFATFNETFGDYSEKAHELLNTKLEQWAEEAVARGGFHNTTALLIQYENYRDWIVNHNVAYSELFLDTAGVASFDVWDLLPFTRGYVHILDKDPYLHHFAYDPQYFLNELDLLGQAAATQLARNISNSGAMQTYFAGETIPGDNLAYDADLSAWTEYIPYHFRPNYHGVGTCSMMPKEMGGVVDNAARVYGVQGLRVIDGSIPPTQMSSHVMTVFYAMALKISDAILEDYASMQ
Question: Which results are given for B1?
Answer: production of ROS (peak height at 650 nm, TMB) [1]: neither GOx nor SPION alone is able to produce ROS; tumor growth (relative tumor volume) [2]: inhibited tumor growth to a much lesser extent

B2: GOx-SPION: glucose oxidase conjugated to superparamagnetic iron oxide nanoparticle via Tz/TCO bioorthogonal ligation (conjugate, UniProt P13006 17-605, looked up)
Glucose oxidase: B1 Glucose oxidase
modifications: superparamagnetic iron oxide nanoparticle
Question: How did the “production of ROS (peak height at 650 nm, TMB)” value [1] turn out when B2 was run?
Answer: Its value is “synergistic activity between conjugated GOx and SPION”.

Question: What about the “side effects (weight loss or death)” value ([2]; 4T1 tumor mice, 5 mg/kg tail vein) of the same molecule?
Answer: Its value is “no severe side effects”.

Question: And the “tumor growth (relative tumor volume)” value [2]?
Answer: The value was “significant slowdown of tumor growth”.

Question: And the “body weight loss during treatment” value ([2]; mouse, in vivo, 5 mg/kg)?
Answer: Its value is “did not experience any significant body weight loss”.

B3: SPION-GOx-Cy7: GOx-SPION tagged with a fluorescent dye (Cy7 moiety) (conjugate, UniProt P13006 17-605, looked up)
Glucose oxidase: B1 Glucose oxidase
modifications: SPION conjugate, Cy7 dye
Question: For B3, which “biodistribution (uptake)” value [3] is on record?
Answer: Its value is “initial uptake of the bioconjugates was to tumor cells”.
